From paper PMC7572726
One block for each substance: values may come before it.

How the values were obtained:
[1] = target: Capnocytophaga granulosa STING (Capnocytophaga granulosa); test: crystal structure
[2] = target: SfSTING with the TIR domain removed (ΔTIR) (Sphingobacterium faecium); test: SEC-MALS
[3] = target: TIR-only construct of SfSTING with the cyclic dinucleotide binding domain removed (ΔCDN) (Sphingobacterium faecium); test: SEC-MALS

Substance: Capnocytophaga granulosa STING (from UniProt A0A381HAP5 151-314) (domain or fragment)
stoichiometry N [1]: 2

stoichiometry N [2]: 2
Substance: SfSTING with the TIR domain removed (ΔTIR) (domain or fragment)

stoichiometry N [3]: 2
Substance: TIR-only construct of SfSTING with the cyclic dinucleotide binding domain removed (ΔCDN) (domain or fragment)
